The data set concerns Escherichia coli TOP10. Description: shrunken log2 fold change of peptide-encoding DNA abundance (4.5 h post-induction vs induction); higher = less antimicrobial activity (less host growth inhibition). To be noted: time post-induction: 4.5 h; library: site-saturation at positions 5, 18, 19, 20.
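Further: peptides expressed intracellularly from a pBAD plasmid library in pooled LB shake-flask culture, induced with 0.3% L-arabinose, DNA abundance read by NGS, three biological replicates, DESeq2 with apeglm shrinkage.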

Turning to RRIRFRPPRLPRPRPRPFYSPRP, the “shrunken log2 fold change” value is -0.0734.
As for RRIRLRPPRLPRPRPRPKLSPRP, the “shrunken log2 fold change” value turned out to be 0.0605.
In the case of RRIRFRPPRLPRPRPRPYSFPRP, the “shrunken log2 fold change” value was -0.967.
Next, RRIRSRPPRLPRPRPRPNGYPRP: -0.12.
With RRIRERPPRLPRPRPRPHHYPRP the figure was 0.125; with RRIRTRPPRLPRPRPRPIHLPRP, 0.0312.
Next, RRIRDRPPRLPRPRPRPYLGPRP: -0.021; RRIRKRPPRLPRPRPRPCLSPRP: -0.161; RRIRLRPPRLPRPRPRPPWKPRP: 0.153.
On to RRIRRRPPRLPRPRPRPDLMPRP, for which the “shrunken log2 fold change” value came to 2.63.
With RRIRIRPPRLPRPRPRPPDPPRP the figure was 0.243.
As for RRIRPRPPRLPRPRPRPSEIPRP, the “shrunken log2 fold change” value was -0.261.
Next, RRIRRRPPRLPRPRPRPHTKPRP: 0.179; RRIRKRPPRLPRPRPRPMLCPRP: -0.0829; RRIRHRPPRLPRPRPRPCPGPRP: -0.541.
Next, RRIRNRPPRLPRPRPRPMTMPRP: 0.0125.
Next, RRIRIRPPRLPRPRPRPMNKPRP: -0.627; RRIRVRPPRLPRPRPRPPSWPRP: 0.34; RRIRHRPPRLPRPRPRPECKPRP: -0.0985.
Regarding RRIRPRPPRLPRPRPRPKLDPRP, the “shrunken log2 fold change” value was 0.0519.
With RRIRTRPPRLPRPRPRPQPMPRP the figure was 0.267; with RRIRQRPPRLPRPRPRPHRIPRP, -0.0425.
For RRIRRRPPRLPRPRPRPDVEPRP, the “shrunken log2 fold change” value was found to be 0.0547.
With RRIRGRPPRLPRPRPRPMQFPRP the figure was 0.184; with RRIRIRPPRLPRPRPRPDDVPRP, -0.00433; with RRIRMRPPRLPRPRPRPKCYPRP, -0.0362.
As to RRIRNRPPRLPRPRPRPFPHPRP, the “shrunken log2 fold change” value was -0.0462.
With RRIRYRPPRLPRPRPRPDLAPRP the figure was -0.344; with RRIRIRPPRLPRPRPRPKKMPRP, 0.222.
Next, RRIRVRPPRLPRPRPRPTDPPRP: 0.328; RRIRKRPPRLPRPRPRPCCCPRP: 0.415; RRIRCRPPRLPRPRPRPLTTPRP: 0.729.
Next, RRIRFRPPRLPRPRPRPSSEPRP: -0.134.
Turning to RRIRHRPPRLPRPRPRPGLSPRP, the “shrunken log2 fold change” value is -0.0763.
Next, RRIRRRPPRLPRPRPRPQQLPRP: -0.0976; RRIRFRPPRLPRPRPRPHEEPRP: 0.00592; RRIRLRPPRLPRPRPRPKKRPRP: 0.277.
Next, RRIRSRPPRLPRPRPRPSDYPRP: -0.87; RRIRYRPPRLPRPRPRPDTGPRP: -0.808.
Next, RRIRYRPPRLPRPRPRPLATPRP: -0.378; RRIRQRPPRLPRPRPRPKHHPRP: -0.391.
For RRIRPRPPRLPRPRPRPAKEPRP, the “shrunken log2 fold change” value amounted to 0.0354.
For the sequence RRIRNRPPRLPRPRPRPLHFPRP, the “shrunken log2 fold change” value is -0.563.
Next, RRIRYRPPRLPRPRPRPYWRPRP: 0.0608; RRIRHRPPRLPRPRPRPHHEPRP: -0.0148.
Next, RRIRPRPPRLPRPRPRPRQKPRP: 0.0891; RRIRIRPPRLPRPRPRPMAPPRP: -0.0415.
On to RRIRHRPPRLPRPRPRPIRRPRP, for which the “shrunken log2 fold change” value was 0.0591.
Next, RRIRRRPPRLPRPRPRPEHMPRP: 0.14; RRIRERPPRLPRPRPRPIQDPRP: 0.876.
Next, RRIRERPPRLPRPRPRPGHFPRP: 0.0631; RRIRDRPPRLPRPRPRPFRYPRP: 0.0402.
Next, RRIRLRPPRLPRPRPRPFCLPRP: -0.485; RRIRSRPPRLPRPRPRPTWLPRP: 0.455.
With RRIRWRPPRLPRPRPRPHNWPRP, the “shrunken log2 fold change” value turned out to be 0.0898.
With RRIRCRPPRLPRPRPRPRWVPRP the figure was 2.6; with RRIRYRPPRLPRPRPRPLCQPRP, -0.648.
Next, RRIRCRPPRLPRPRPRPSWCPRP: -0.417.

(Values after the supplement of paper PMC9112550, “Optimization of the antimicrobial peptide Bac7 by deep mutational scanning” (BMC Biology, 2022).)
